Data reported in the RNAGym collection of RNA variant scans (doi:10.1073/pnas.2313332121).
Fewer inactive variants are shown than the library holds.

B1: TPR 5TU (parent)
chain: GGAUCUUCUCGAUCUAACAAAAAAGACAAAUCUGCCACAAAGCUUGAGAGCAUCUUCGGAUGCAGAGGCGGCAGCCUUCGGUGGCGCGAUAGCGCCAACGUUCUCAACUAUGACACGCAAAACGCGUGCUCCGUUGAAUGGAGUUUAUCAUG

Variants of: B1
Experiment: polymerase ribozyme fitness, log enrichment relative to wild type (log ratio); higher = more active; in vitro selection for triplet polymerase activity
Summary of the method: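 Libraries of mutants in each subunit of a heterodimeric triplet polymerase ribozyme were generated by PCR and transcribed. In triplicate, each went through one in vitro selection round: annealing with biotinylated primer, partner subunit and triplets; frozen incubation at −7 °C; gel excision of extended constructs; streptavidin-bead capture; RT-PCR. Fitness, taken from Illumina sequencing of input and output libraries, is the logarithm of a genotype's enrichment over wild-type enrichment, averaged across replicates with inverse-variance weights. The logarithm is base 2, and genotypes needed ≥10 input reads and ≥1 read per output to be kept.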
For GGAUCUUCUCGAUCUAACAAAAAAGACAAAUCUGCCACAAAGCUUGAGAGCAUGAUCGGAUGCAGAGGCGGCAGCCUUCGGUGGCGCGAUAGCACCAACGUUCUCAACUAUGACACGCAAAACGCGUGCUCUGUUGAAUGGAGUUUAUCAUG, the “polymerase ribozyme fitness (log ratio)” value was ≤ -4.2. In the case of GGAUCUUCUCGAUCUAACAAAAAAGACAAAUCUGCCACAAAGCUUGAGAGCAUUUUCGGAUGCAGAGGCGGCAGCCUUCGGUGGCGCGAUAGCGCCAACGUUCUCAUCUAGGACACGCAAAACGCGUGCUCCGUAGAAUGGAGUUCAUCAUG, the “polymerase ribozyme fitness (log ratio)” value is reported as -4. With GGAUCUUCUCGAUCUAACAAAAAAGACAAAUCUGCCACAAAGCUUGAGAGCAUUUUCGGAUGCAGAGGCGGCAGCCUUCGGUGGCGCGAUAGCGCCAACGUUCUCAACUAUGACACGCAAAACGCGUGCUCCGUUGAAUGGAGUUUAUCGUG the “polymerase ribozyme fitness (log ratio)” value was -0.995. For GGAUCUUCUCGAUCUAACAAAAAAGACAAAUCUGCCACAAAGCUUGAGAGCAUUUUCGGAUGCAGAGGCGGCGGCCUUCGGUGGCGCGAUAGCGCCAACGUUCUCAACUAUGACACGCAAAACGCGUGCUCCGUUGAAUGGAGUUUAUCAUG, the “polymerase ribozyme fitness (log ratio)” value was -0.166. With GGAUCUUCUCGAUCUAACAAAAAAGACAAAUCUGCCACAAAGCUUGAGAGCAUUUUUGGAUGCAGAGGCGGCAGCCUUAGGUGGUGCGAUAGGGCCAACGUUCUCAGCUAUGACACGCAAAAGGCGUGCUCCGUUGAAUGGAGUUUAUCAUG the “polymerase ribozyme fitness (log ratio)” value was ≤ -4.2. With GGAUCUUCUCGAUCUAACAAAAAAGACAAAUCUGCCACAAAGCUUGAGAGCAUGAUCGGAUGCAGAGGCGGCAGCCUUCGGUGGCGCGAUAGCUCCACCGUUCUCAACUAUGACACGCAAAACGCGUGCUCCGUUGAAUGGAGUUGAUCAUG the “polymerase ribozyme fitness (log ratio)” value was -3.37. For GGAUCUUCUCGAUCUAACAAAAAAGACAAAUCUGCCACAAAGCUUGAGAGCAUUUUCGGAUGCAGAGGCGGCAGCCUUCGGUGGCGCGAUAGCGCCCACGUUCUCAACUAUGACACGCAAAACGCGUGCUCCGUUGAAUGGAGUUUAUCAUG, the “polymerase ribozyme fitness (log ratio)” value was -0.294. With GGAUCUUCUCGAUCUAACAAAAAAGACAAAUCUGCCACAAAGCUUGAGAGCAUUUUCGGAUGCAGAGGCGGCAGCCUUCGGUGGCGCGAUAGCGCCAACGUUCUCAACUAUGACGCGCAAAACGCGUGCUCCGUUGAAUGGAGUUUAUCAUG the “polymerase ribozyme fitness (log ratio)” value was -3.13. For GGAUCUUCUCGAUCUAACAAAAAAGACAAAUCUGCCACAAAGCUUGAGAGCAUGUACGGAUGCAGAGGCGGCAGCCUUCGGUGGCGCGAUAGCGCGAACGUCCUCAACUAUGACACGCAAAACGCGUGCUCCGUUAAAUGGAGGUUAUCAUG, the “polymerase ribozyme fitness (log ratio)” value was -3.08. For GGAUCUUCUCGAUCUAACAAAAAAGACAAAUCUGCCACAAAGCUUGAGAGCAUGAUCGGAUGCAGAGGCUGCAGCCUUCGCUGGCGUGAUAGCCCAAACGUUCUAAACUAUGACACGCACAACGCGUGCUCCGUUGAAUGGAGUUUAUCAUG, the “polymerase ribozyme fitness (log ratio)” value was ≤ -4.2. In the case of GGAUCUUCUCGAUCUAACAAAAAAGACAAAUCUGCCACAAAGCUUGAGAGCAUUUUAGGAUGCAGAGGCGGCAGUCUUCGGUGGCGCGAUGGCGCCAACGUUCUCAACUAUGACACGCAAAACGCGUGCUCCGUUGAAUGGAGUUUAUCAUG, the “polymerase ribozyme fitness (log ratio)” value is reported as -3.62. In the case of GGAUCUUCUCGAUCUAACAAAAAAGACAAAUCUGCCACAAAGCUUGAGAGCAUUUUCGGAUGCAGAGGCGGCAGCCUUCGGUGGCGCGAUAGCGCCAACGUUCUCAACUCUGAUACGCAAUACGCGUGCUCCGUUGAAUGGAGUUUAUCAUG, the “polymerase ribozyme fitness (log ratio)” value is reported as -4.15. In the case of GGAUCUUCUCGAUCUAACAAAAAAGACAAAUCUGCCACAAAGCUUGAGAGCAUGUUCGGAUGCAGAGGCGGCAGCCUUCGGUGGCGCGAUAGCGCCAACGUUCUCAACCAUGACAUGCAAAACGCGUGCUUCGUUGAAUGGAGUUUUUCAUG, the “polymerase ribozyme fitness (log ratio)” value is reported as -1.86. In the case of GGAUCUUCUCGAUCUAACAAAAAAGACAAAUCUGCCACAAAGCUUGAGAGCAUUUUCGGAUGCGGAGACGGCAGCCCUCGGUAGCGCUAGAGCGCCAACGUUCUCAACUAUGACACGCAAAACGCGUGCUCUGUUGAAGGGAGUUUAUCAUG, the “polymerase ribozyme fitness (log ratio)” value is reported as ≤ -4.2. For GGAUCUUCUCGAUCUAACAAAAAAGACAAAUCUGCCACAAAGCUUGAGAGCAUGUAAGGAUGCAGAGGCGGCAGCCUUCGUUGGCGCGAUAGUGCCAACGUUCUCAACUAUGACACGCAAAACGCGUGCUCCGUUGAAUGGAGUUUAUCAUG, the “polymerase ribozyme fitness (log ratio)” value was -0.912. In the case of GGAUCUUCUCGAUCUAACAAAAAAGACAAAUCUGCCACAAAGCUUGAGAGCAUUUUGGGAUGCAGAGGCGGCAGCCUUCGGUGUUGCGAUAGCGCCAACGUUCUCAACUAUGACACGCAAAACGCGUGCUCUGUUGAAUGGAGUUUAUCAUG, the “polymerase ribozyme fitness (log ratio)” value is reported as -3.94. With GGAUCUUCUCGAUCUAACAAAAAAGACAAAUCUGCCACAAAGCUUGAGAGCAUUUUCGGAUGCAGAGGCGGCAGCCUUCGGUGGCGCGAUUGCGCCAACGUGCUCAACUAUGACACGCAAAACGCGUGCUCCGUUGAAUGGAGUUUAUCAUG the “polymerase ribozyme fitness (log ratio)” value was ≤ -4.2. In the case of GGAUCUUCUCGAUCUAACAAAAAAGACAAAUCUGCCACAAAGCUUGAGAGCAUUUUCGGAUGCAGAGGCGGCAGCCUUCGGUGGCGCGAUGGCGCCAACGUUCUCAACUAUGACACGCAAAACGCGUUCUUCGUUGAAUGGAGUUUAUCAUG, the “polymerase ribozyme fitness (log ratio)” value is reported as -3.53. With GGAUCUUCUCGAUCUAACAAAAAAGACAAAUCUGCCACAAAGCUUGAGAGCAUUUUGGGAUGCAGAGGCGGCAGCCUUCGGUGGCGAGAUAGCGCCAACGUUCUCAACUAUGACACGCAAAACGCGUACUCCGUUGAAUGGAGUUUAUCAUG the “polymerase ribozyme fitness (log ratio)” value was ≤ -4.2.
